Here are results for 2 substances from publication PMC6590076.

The assay concerns the target 14-3-3β (UniProt P31946). The assay is described as follows: in vitro pull-down, immobilized phosphoprotein.

For “FOXO3A (from UniProt O43524) FOXO3A with pSer253 (SepOTSλ)”, the “binding against the reference” value (reference: FOXO3A with Ser253 (supD tRNA), sites S253) is “stronger”.

On to “FOXO3A (from UniProt O43524) FOXO3A with pSer413 (SepOTSλ)”, for which the “binding against the reference” value (reference: FOXO3A with Ser413 (supD tRNA), sites S413) is “stronger”.
